B1: Protein TonB (Escherichia coli (strain K12)), P02929 (parent)
chain: MTLDLPRRFPWPTLLSVCIHGAVVAGLLYTSVHQVIELPAPAQPISVTMVTPADLEPPQAVQPPPEPVVEPEPEPEPIPEPPKEAPVVIEKPKPKPKPKPKPVKKVQEQPKRDVKPVESRPASPFENTAPARLTSSTATAATSKPVTSVASGPRALSRNQPQYPARAQALRIEGQVKVKFDVTPDGRVDNVQILSAKPANMFEREVKNAMRRWRYEPGKPGSGIVVNILFKINGTTEIQ
partner: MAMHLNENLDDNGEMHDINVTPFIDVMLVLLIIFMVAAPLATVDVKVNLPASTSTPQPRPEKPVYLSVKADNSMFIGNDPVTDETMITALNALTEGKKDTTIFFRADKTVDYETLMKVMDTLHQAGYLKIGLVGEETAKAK
B2: Biopolymer transport protein ExbD (Escherichia coli (strain K12)), P0ABV2 (parent)
chain: B1 partner

Variants of B1 are the subject of the first experiment. The conditions noted are these: with exbd_ecoli exbD, P0ABV2.
For the variant Q168C, the “effect of a mutation on the interaction” value is recorded as “increasing interaction”.

Regarding R166C, the “effect of a mutation on the interaction” value was “increasing interaction”.

As for L170C, the “effect of a mutation on the interaction” value is “increasing interaction”.

For R204C, the “effect of a mutation on the interaction” value was “increasing interaction”.

In the case of G152C, the “effect of a mutation on the interaction” value is “increasing interaction”.

For the variant A150C, the “effect of a mutation on the interaction” value is “increasing interaction”.

As to N200C, the “effect of a mutation on the interaction” value is “increasing interaction”.

With R212C, the “effect of a mutation on the interaction” value is “increasing interaction”.

Take F202C: the “effect of a mutation on the interaction” value is listed as “increasing interaction”.

Turning to P164C, the “effect of a mutation on the interaction” value is recorded as “increasing interaction”.

In a further experiment the parent is B2. The conditions noted are these: with tonb_ecoli tonB, P02929.
On to MAMHLNENLDDNGEMHDINVTPFINVMLVLLIIFMVAAPLATVDVKVNLPASTSTPQPRPEKPVYLSVKADNSMFIGNDPVTDETMITALNALTEGKKDTTIFFRADKTVDYETLMKVMDTLHQAGYLKIGLVGEETAKAK, for which the “effect of a mutation on the interaction” value is reported as “decreasing interaction”.

Take MAMHLNENLDDNGEMHDINVTPFIDVMLVLLIIFMVAAPLATVDVKVNLPASTSTPQPRPEKPVYLSVKADNSMFIGNDPVTDETMITALNCLTEGKKDTTIFFRADKTVDYETLMKVMDTLHQAGYLKIGLVGEETAKAK: the “effect of a mutation on the interaction” value is recorded as “increasing interaction”.

Turning to MAMHLNENLDDNGEMHDINVTPFIDVMLVLLIIFMVAAPLATVDVKVNLPASTSTPQPRPEKPVYLSVKADNSMFIGNDPVTDETMITALNALTEGKKDTTIFFRADKCVDYETLMKVMDTLHQAGYLKIGLVGEETAKAK, the “effect of a mutation on the interaction” value is “increasing interaction”.

On to MAMHLNENLDDNGEMHDINVTPFIDVMLVLLIIFMVAAPLATVDVKVNLPASTSTPQPRPEKPVYLSVKADNSMFIGNDPVTDETMITALNALTEGCKDTTIFFRADKTVDYETLMKVMDTLHQAGYLKIGLVGEETAKAK, for which the “effect of a mutation on the interaction” value was “increasing interaction”.

(Values after IntAct's records for PubMed 22493017.)
